Experimental data taken from US9029340.

Target: prostate-specific membrane antigen (PSMA) (human) (UniProt Q04609)
Assay: flow cytometry; J591 (1:5000) plus Alexa488 secondary on PC3-PIP cells, PSMA-negative PC3-Flu cells as reference

Chain of UniProt Q04609 (Q04609 whole entry): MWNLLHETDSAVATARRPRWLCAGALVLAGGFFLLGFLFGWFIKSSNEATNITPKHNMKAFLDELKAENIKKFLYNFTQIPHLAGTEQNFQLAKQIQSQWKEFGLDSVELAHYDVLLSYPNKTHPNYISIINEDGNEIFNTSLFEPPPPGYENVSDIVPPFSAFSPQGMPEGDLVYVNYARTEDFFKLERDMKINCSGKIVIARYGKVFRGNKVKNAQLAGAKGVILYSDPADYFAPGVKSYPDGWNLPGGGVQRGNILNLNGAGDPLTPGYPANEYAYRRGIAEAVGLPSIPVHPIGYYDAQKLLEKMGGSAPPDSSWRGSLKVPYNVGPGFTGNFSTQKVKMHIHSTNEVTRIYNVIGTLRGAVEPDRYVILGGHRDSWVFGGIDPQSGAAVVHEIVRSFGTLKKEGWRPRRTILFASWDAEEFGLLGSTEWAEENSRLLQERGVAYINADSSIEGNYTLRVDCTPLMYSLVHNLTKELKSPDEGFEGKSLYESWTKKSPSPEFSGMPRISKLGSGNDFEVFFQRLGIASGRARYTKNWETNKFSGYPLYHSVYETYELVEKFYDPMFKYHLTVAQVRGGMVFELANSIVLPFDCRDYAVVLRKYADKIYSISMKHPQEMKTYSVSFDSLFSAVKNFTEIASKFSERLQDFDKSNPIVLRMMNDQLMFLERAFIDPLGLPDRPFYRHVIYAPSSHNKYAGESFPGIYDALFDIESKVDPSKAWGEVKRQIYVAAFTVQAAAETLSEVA

percent of cells stained positive: 48.2%
Substance: anti-PSMA (J591) antibody
